Results taken from the DeepSol protein solubility set.

assay: soluble on expression in E. coli; label from the status in PepcDB or PDB records

| Sequence | soluble on expression in E. coli |
| --- | --- |
| MNAEDVKGFFASRESLDMEQYLVLDYYLESVGDIETALAHFCSEQSTAQWKRVGVDEDFRLVHAAKVIDYEVIEELEQLSYPVKHSETGKIHACRVTIAHPHCNFGPKIPNLLTAVCGEGTYFTPGVPVVKLMDIHFPDTYLADFEGPKFGIEGLRDILNAHGRPIFFGVVKPNIGLSPGEFAEIAYQSWLGGLDIAKDDEMLADVTWSSIEERAAHLGKARRKAEAETGEPKIYLANITDEVDSLMEKHDVAVRNGANALLINALPVGLSAVRMLSNYTQVPLIGHFPFIASFSRMEKYGIHSKVMTKLQRLAGLDAVIMPGFGDRMMTPEEEVLENVIECTKPMGRIKPCLPVPGGSDSALTLQTVYEKVGNVDFGFVPGRGVFGHPMGPKAGAKSIRQAWEAIEQGISIETWAETHPELQAMVDQSLLKKQD | soluble |
| MNAITPTPGIDKEAFDRAANAVRRLCGWHIFPIIEETITLDSPGDSLLVLPTKHLVEIINVTIDGTTYPLSDFRSSPDGLLVKRHGRFPRGIAMVTVTMKHGYEKPTEILGVINDMARRANESNLTQLNVGGISVGATNSATPQSSEWRIVDELRLGPLP | not soluble |
| MNALARRAAGLLLSTICLPLTALAADPQPTHEFTLDNGLKVVVREDHRAPVVVSQIWYKVGSSYETPGQTGLSHALEHMMFKGSSKTGPGESSLILRDLGAEENAFTSDDYTAYYQVLARDRLSVALELEADRMATLKLPADEFGREIEVIKEERRLRTDDKPMGKAFERFKAMAYPASGYHTPTIGWMADLERMKVEELRHWYESWYTPNNATLVVVGDVQPDEVKALAERFFGPIPRRDVPPSKKPLELAEPGERKITLHVKTQLPSLIYGFNVPSVATAEDPRSANALRLIAALLDGGYSARIPTRLERGEELVSGASSRYDAFARGDSLFMISATPNMQKKKTLADVEAGIWRLLDDLKTKAPSAEELERVRAQVIAGVVYERDSITSQATMIGELETVGLSWKLMDKELEDLQSVTPQDIQKAANTYFTRERLSVAHVLPEEKAK | not soluble |
| MNALLVMTGLAAAASGRIGAACSALLGGGAVRGRSAGASGDEAQAQDADSSPEADRLEDVSPSGAFAGVIAALEVQAPVRDVPPPTDDLANEGEDIARSRVAATAADAVTSGGAARSPRDALGGLAFGQSPMIEAGKALYVSPVRDDERLRNGERFRDGERLRDGADGARAGMRDAASAAGAASTSRVGQPGAGAPRDQQALSQSPGQQAADKPPAGAPGPQEGTIGAPVDMPRAAARAHSPQSAPVRLGAELMSVLGERIDVQLQRGVERAVIRLDPQSMGTLHIAIRHEGGSVQIQMIASHEEVARQLQTMSEALRQDLSSRHHGDVTVVVRHGQGMEQGAGHGEGGAHREEKRPGAALAEADVPDGDDGFRLDGRDVI | not soluble |
| MNANVYQHFRKDEHPFIDTVGDWLEQVEMQYAPYLTDFLDPRQAYILETLIRQNSDLSFTFYGGYEQAERKRCLIYPAYYIPEETDFGVVLFEIIYPSKFATLSHGKILGTLMNVGVRREAFGDIISDGDKWQVFIAQEVAGFVVNQVDKIGKITVRLEERDYTQILIPKDGWQEERTTMSSLRLDSVISAVFNISRQRSKQLIESGKVKVNWTETTRPDFALDLLDIVSIRGFGRLQIQELEGKTKKEKFRVLLGVLRK | not soluble |
| MNAPIEPHRFTLEPFEAHRFANLCGQLDEHLRLIEQRLDIEIRNRGNQFELIGETTQTRSAENLLRRLYRETKGTELTPDMVHLFLQESGVDGLDNHPAAEVGVSLRTKKGMIRPRGLNQQRYVKEVLSNDINFGIGPAGTGKTYLAVACAVDALEREQIRRILLVRPAVEAGEKLGFLPGDLAQKIDPYLRPLYDALYEMLGFEYVAKLIEKQVIEVAPLAYMRGRTLNNSFIILDESQNTTVEQMKMFLTRIGFGSTAVITGDITQVDLPKGTRSGLTHVIDVLKDVPGISFTHFKPKDVVRHPLVQRIVEAYERFDDQLSDGPSGNNGYSRDKNRNA | not soluble |
| MNATIQTIPELLIQTRGNQTEVARMLSCARGTVLKYNRDSKGERHVIVNGVLMVKQGKRGRP | not soluble |
| MNAYQKTIGRAVTLSGVGIHGGAPASARLLPADADTGILFQRSDIKDSAPVCAHVSQIGATDLCTSLGAREARIDTVEHLMAAISALGIDNLVVEIEGPEVPILDGTSARFIEAVDSVGVVTQDAKRRFIRILKTVRVEAGNSWGEFRPYDGTRFEVEIDFECPLIGRQKFAHDVDEETFRKELSTARTFGFMKDVERLWAAGLALGASLDNSLVIGDDNSIVNADGLRFKDEFVRHKTLDAVGDLALAGLPFIGCFSSYRGGHRLNSEAVKALLSDETAFEIIEALEHHHHHH | soluble |
| MNCEKCNQNPATIQLYMNINGKRVEMPLCASCYAEVRNQANFGSNEFPGASGSPFDDIFRQLSGAANQANREQRSQANAQVQTQTAGGGNGILDEFGTNLTDMAKNEQLDPVIGRDKEIKRVIEILNRRNKNNPVLIGEPGVGKTAVVEGLANAIVAGDVPSKLMNKEVILLDVASLVSGTGIRGQFEERMKQLIKELQERKNTILFIDEVHTIVGAGSAEGSMDAGNILKPALARGDLQMIGATTLKEYRTIEKDAALERRFQPVTVSEPSTKETLTILNGLKPKYEDFHEVVYSPEALTAAVELSARYIQDRHLPDKAIDLMDEVGSKYNLSIEKLDENTVSERVARLEDEKNQALQMEDYEKAAKVRDEITRLEENKTSNSFSERPVIQASDIQAIIEEKTGIPVGRLQEDEQSKMKNLERNLTGKVIGQEDAVKKVAKAIRRSRVGLKSKNRPIGSFLFVGPTGVGKTELGRTLARELFGTSEAMIRLDMSEFMEKHSISKLIGSPPGYVGHEEAGQLTEKVRRNPYSIILLDEIEKAHPDVQHMFLQILEDGRLTDSQGRTVSFKDTVIIMTSNAGATDTEASVGFNTTTETKLEKGSDILAKLGAYFKPEFLNRLDSVIEFKSLEKDDLVQIIDLMLVDLNEMLAQEGVTIDVSKEVKEHLIDLGYDPKFGARPLRRTIQEHLEDTIADSLIDQPEAKNLVATLNDNKEITITEQVTA | not soluble |
| MNCGPPPTLSFAAPMDITLTETRFKTGTTLKYTCLPGYVRSHSTQTLTCNSDGEWVYNTFCIYKRCRHPGELRNGQVEIKTDLSFGSQIEFSCSEGFFLIGSTTSRCEVQDRGVGWSHPLPQCEILEHHHHHH | soluble |
| MNDIIVLTGKVKFTITLDPGVWIFDDRKVDMDAYFSEPAPQPTEAEQEDEEIKKLSAFWDREIQEGAVFPPTLKTERRFLKEKIITGSFGMPFAPFLRNAEPHEDASELVIETEHGETVIPLEKAYDLIFAFSQNGKPLRDDGPVHIYFGDGSNREAPITHVRRLVVR | not soluble |
| MNDKIQKLIKKLAKECQKEDVALSLAAIDLEGEMAISQVGKGTIVAIAAHSQYTLTKEKLEQSDCDCPKHRLLKEMYGTETETTTKNTHTFVTDDPNDLMDILSKIFRGEFK | not soluble |
| MNDRADFVVPDITTRKNVGLSHDANDFTLPQPLDRYSAEDHATWATLYQRQCKLLPGRACDEFLEGLERLEVDADRVPDFNKLNEKLMAATGWKIVAVPGLIPDDVFFEHLANRRFPVTWWLREPHQLDYLQEPDVFHDLFGHVPLLINPVFADYLEAYGKGGVKAKALGALPMLARLYWYTVEFGLINTPAGMRIYGAGILSSKSESIYCLDSASPNRVGFDLMRIMNTRYRIDTFQKTYFVIDSFKQLFDATAPDFAPLYLQLADAQPWGAGDIAPDDLVLNAGDHQGWADTEDV | soluble |
| MNDTKITGGDLYDLWRVANINMPNVQAVYADACNVIHEINVANEDKFGRAHPGWAALGQIYEQCLFLTEGSLFSVAHYIDKAVKEFKEVDAEAARDLEAIFKNPNDHNPDDELTGDEKPKDVEVPNWWND | not soluble |
| MNDVYAEAKLNKPDFHTAYTLKKDDGGAIALGEGSTGTVTEVTDPEAIATTVVEWTVTPAEALALVKKSKTEMFATVTYESVDGTRGDITITMKASIAMPSGVIKNDQKITEAWSPDKSYVKADVKEPVTVAVTDFKLDLFDVFEGRKVVVSDVTEANFPSFTKDKLTAKFIFSGAKDVTIGTDKYTFTVTANGTQLNASKNSATATKIATIDADGIITYNKADENAHALLNKSAYNVDPFTVGIEIVVTNECDEILPLTGNKFDVKFLRPINVVDLKSAELQDATTGTAKIDMSKLLGLTDWRGQAFAVAPIDFYTYYGVTGSAISIDKDQIMTTLNASEAAPKLLKDVAPNMSINYTCDLQKIGGDITYGDLVYANGKFTINAPFKLFIPVTVKYTFGEVTSTVTLTITPTHQ | not soluble |
| MNEEVVMKFLHTSDWHVGRTLNGWSLLEEQEWAFQQIVDLAISEKVDGVIISGDLYDRAVPPVDAIKLFNKTLARLVLEEQIPVYAISGNHDGAERLHFGRDFFQHQGLHLSTRLEEAFEPIELENCQIFLLPFIDPIDARIYYKDDEGKEIQGIGDALTYILEDMEKAFDPDKAHVLVTHFAVSKKDDSDGQGLRELMLSETSNTVGGLTNVTSDLFKSFDYVALGHIHTRFASPTKRVQYSGSPVAFNVKEAKRKEEKGVYILELDASGDMSQTFHT | not soluble |
| MNELIGFVNGNSVRQKVLSLLASKGEMEGKRISKTLRVVYPTIAKTLEELEEKNLISKKEEIYFLTETGTKIEKMVQQI | not soluble |
| MNEVLELKEELLQIKNNNYAVPEDVDAYPYAQWMLDYIGSPDAELRDDLIYSTLHTWITNDVFRQKELRGLMLQAISPDYLFYKIGEKGTDSVFKRAFSVLIPPLILSVHEREPLLSEEQLYSVAEQVLEYVYLEEDVRGYVEGKGWAHSTAHAADALDALARTIQNREFSYAILAAVRQKVRLSDYVYVHFEDERLVKPIMSLHNQKLLTEEEWSNWLHSIATVEDIRHPQHAILVQNIRSFLRSLYFRVLETEGSTAFTDDILETLKGLRRY | not soluble |
| MNEVLRQEKKYLISLEDYYLLSKKFSQVMTLDSHSSDDGYTIRSLYFDSLEDVDWQEKEDGVEIRRKIRLRNYGSQSNFAKLEMKQKQGANQKKRSLKLSKTDAQALINGNNSVLLNYPDTFAAECYSRITTQLYQPKTVIEYQRKAFVAKENNIRITFDHHIIGTEASYDIFSEDLNQNYLLDPYLVILEVKYNGFLLSYIKELLDSVDRSELSASKYCLGRAVSKHYRFLEHHHHHH | not soluble |
| MNFDVAIIGGGLAGLTCAIALQQRGKRCVIINNGQAAIDFASGSLDLLSRMPSTTYGENRAVENLKENITALRNELPAHPYSLLGAEKVLAKAQDFERLANELHLDLIGSTEKNHWRVTGLGSLRGAWLSPNSVPTVQGNEPFPHKRIAVLGIEGYHDFQPQLLAANLVLNPQFEHCEVTSGFLNIPQLDELRKNAREFRSVNISQLLEHKLAFKDLVKEIIESAQGAEAVFLPACFGLENQEFMTALRDATKLALFELPTLPPSLLGMRQRIQLRHKFESLGGLMINGDSALNATFEGNQVRCINTRLLEDEEITADNFVLASGSFFSKGLISEFDKIYEPVFESDIIGVEGFNNKDRFTWTAHRFAHPQPYQSAGVAINAQCQVKKCGQFLTNLYAVGNVIGGFNALELGCGSGVAVVTALAVADEILAKLEHHHHHH | soluble |
| MNFFSLHPNVYATGRPKGLIGMLENVWVSNHTPGEGTLYLISGFSNYNGGVRFYETFTEHINQGGRVIAILGGSTSQRLSSRQVVEELLNRGVEVHIINRKRILHAKLYGTSNNLGESLVVSSGNFTGPGMSQNIEASLLLDNNTTQSMGFSWNDMISEMLNQNWHIHNMTNATDASPGWNLLYDERTTNLTLDETERVTLIVTLGHADTARIQAAPGTTAGQGTQYFWLSKDSYDFFPPLTIRNRRGTKATYSSLINMNYIDINYTDTQCRVTFEAENNFDFRLGTGKLRYTGVAKSNDIAAITRVGDSDYELRIIKQGTPEHSQLDPYAVSFIGNRGKRFGYISNEEFGRIIGVTF | soluble |
